Source: patent US7399847 (GENERAL HOSPITAL, dated 2008)

Target: T1, PSGL-1-NH2/CD34-COOH (UniProt Q14242 18-117; P28906 30-385)
T1 construct: range mature amino terminus-117;range 30-end (end not numbered), on cells; Cotransfected with FTVIIh; also called PSGL-1 apical domain on CD34
T1 sequence: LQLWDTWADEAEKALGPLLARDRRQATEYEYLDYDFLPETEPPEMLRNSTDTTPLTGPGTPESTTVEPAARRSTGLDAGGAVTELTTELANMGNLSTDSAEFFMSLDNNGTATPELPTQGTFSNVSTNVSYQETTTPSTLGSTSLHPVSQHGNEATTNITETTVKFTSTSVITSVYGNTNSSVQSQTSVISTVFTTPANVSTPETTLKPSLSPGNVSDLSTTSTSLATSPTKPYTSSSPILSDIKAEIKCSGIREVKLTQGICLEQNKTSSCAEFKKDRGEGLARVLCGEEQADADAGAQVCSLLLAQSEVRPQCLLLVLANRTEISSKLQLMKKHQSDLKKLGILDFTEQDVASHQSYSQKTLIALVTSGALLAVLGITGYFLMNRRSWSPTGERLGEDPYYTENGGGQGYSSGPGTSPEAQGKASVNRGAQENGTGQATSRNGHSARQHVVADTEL
Assay: adhesion of 51Cr-labelled transfected COS cells to immobilized P-selectin:Ig
Experimental: To assess the importance of these residues, the tyrosines were converted to phenylalanine (FIG. 9A). In a second peptide, the threonines were converted to alanines. In addition, a third peptide, containing a quintuple mutation, was prepared such that both conversions were made in a single peptide. […] Cells expressing the resulting chimeras were tested for their ability to bind to immobilized P-selectin (FIG. 9A). […] Expression of the flu tag or sLe^x epitope was not affected in these cells.

B1: P-selectin:immunoglobulin fusion protein (Fc fusion, UniProt P16109 42-321, looked up)
chain: WTYHYSTKAYSWNISRKYCQNRYTDLVAIQNKNEIDYLNKVLPYYSSYYWIGIRKNNKTWTWVGTKKALTNEAENWADNEPNNKRNNEDCVEIYIKSPSAPGKWNDEHCLKKKHALCYTASCQDMSCSKQGECLETIGNYTCSCYPGFYGPECEYVRECGELELPQHVLMNCSHPLGNFSFNSQCSFHCTDGYQVNGPSKLECLASGIWTNKPPQCLAAQCPPLKIPERGNMTCLHSAKAFQHQSSCSFSCEEGFALVGPEVVQCTASGVWTAPAPVCKA
notes: domain: lectin, EGF-related, and first two short consensus repeat related domains; Made in COS cells; captured from supernatant on wells coated with goat anti-human IgG Fc; also called soluble P-selectin; P-selectin Ig chimera; not shown: hinge, CH2, and CH3 domains of human IgG1
Q: Does B1 bind?
A: binds
